Measured values published in publication PMC4826616.
Values belong to the substance of their own block, whether it stands above or below them.

Assays:
[1] = target: MDA-modified low density lipoprotein; assay: ELISA
[2] = target: complement factor H (purified CFH) (UniProt P08603); assay: flow cytometry on cells
[3] = target: MAA-modified bovine serum albumin (bovine) (UniProt P02769); assay: ELISA

- reduction of binding against plasma homozygous for the Y402 allele [1]: 52%
Substance: CFH variant H402 (from UniProt P08603 19-1231) (natural protein)

- percent competition of the binding of CFH to apoptotic blebs [2]: > 60%
Substance: MAA-modified bovine serum albumin (from UniProt P02769 25-607)

- Kd [3]: 64 nM
Substance: complement factor H (purified CFH) (from UniProt P08603 19-1231) (natural protein)
